Experimental data published in patent US20250304636A1 (H LEE MOFFITT CANCER CENTER AND RESEARCH INSTITUTE, published 2025).

Biological target: T1, Syk (UniProt P43405 1-635, limits assumed)
T1 construct: also called Syk kinase; pcDNA3-Syk
Assay: co-immunoprecipitation from co-transfected AD293 cells
Experimental: AD293 cells (a cell line derived from HEK293 with improved cell adherence and plaque formation, Agilent) were washed with Dulbecco's PBS (DPBS), and resuspended in 2.0 μg/ml of anti-human TREM-1 antibody (R&D Systems) on ice for 30 min. After washing with DPBS, cells were incubated with 1.0 μg/ml of Affinipure rabbit anti-mouse IgG (H+L) Ab (Jackson Immunoresearch) at 37° C. for 10 min. Cells were then scraped off the plates and followed by centrifugation at 400 g for 10 minutes at 4° C. Cells were washed twice with cold 1×DPBS and lysed on ice for 30 min at 4° C. in 1 ml of lysis buffer (1% NP-40, 10 mM Tris, 150 mM NaCl, 0.5 mM phenylmethylsulfonyl fluoride, 10 mM iodoacetamide, 50 mM NaF, 1 mM ethylenediamenetetraacetic acid, 1 mM sodium orthovanadate, 0.25% sodium Deoxycholate, 10 μl Ala-Ala-Phe p-nitroanilide (SIGMA), 10 μl protease cocktail I (SIGMA cat #P2850) and 10 μl protease cocktail II (SIGMA cat #P5726). Cell lysates were centrifuged at 12,000 g at 4° C. for 15 minutes to remove nuclei and cell debris, after which the clarified lysate supernatant was isolated. The protein concentration of the soluble extracts was determined using the Bradford protein assay (Bio-Rad, Hercules, CA, USA) following manufacturer protocol. Western blots were blocked in PBST containing 4% BSA for 1 h and then incubated overnight at 4° C. in primary antibodies. […]

- binding result: no binding
B1: wild-type DAP12 (12-kilodalton DNAX activating protein) (other)
chain: IALAVYFLGRLVPRGRGAAEAATRKQRITETESPYQELQGQRSDVYSDLNTQRPYYK
notes: Over-expressed from pcDNA3 in AD293 cells together with pcDNA3-Syk; co-immunoprecipitated from cell lysates; No signal peptide limits are stated; also called WT DAP12; WT
